This series can be described thus: Zeta potential measured using Malvern Zetasizer. Format: physicochemical. Conditions: 2 ml sample; alkaline (KOH) aqueous medium. On the procedure:
The Zeta Potential was measured using Malvern Zetasizer (2 ml sample). […] The error bar of ±0.2 mV […]. […] Usually Proteins tend to destabilise/degrade in the presence of strong alkalis like KOH but the stability of the complex, so prepared, was confirmed by ^1H NMR. […] Surface charge around protein changes with change with complex.

Turning to sericin, the “Zeta Potential” value is on record as −15±0.2 mV.

The values above are taken from patent publication US20200368125A1, “FAST-ACTING BIOCIDAL CLEANSING COMPOSITION” (Conopco, Inc., d/b/a UNILEVER, priority 2017, published 2020).
